# Test results from patent US20140031283A1, “ANTICANCER FUSION PROTEIN” (ADAMED SP. Z O.O., priority 2011, published 2014).
# B1: Ex. 16: fusion protein: hexapeptide inhibitor of E2F with antennapedia sequence at N-terminus of TRAIL121-281, uPA and MMP sites (protein)
# chain: FWLRFTKPRRPYRVVRPLGLAGRVAAHITGTRGRSNTLSSPNSKNEKALGRKINSWESSRSGHSFLSNLHLRNGELVIHEKGFYYIYSQTYFRFQEEIKENTKNDKQMVQYIYKYTSYPDPILLMKSARNSCWSKDAEYGLYSIYQGGIFELKENDRIFVSVTNEHLIDMDHEASFFGAFLVG
# modifications: synthesized, a fusion protein comprising: a fragment of TRAIL protein, a peptide inhibitor of E2F, cleavage sites recognized by urokinase uPA and metalloprotease MMP and an antennapedia transporting domain.
# B2: Ex. 11: fusion protein: 18-amino acid peptide DD2 from DOC-2/DAB2 with 7 Arg transporting domain at C-terminus of TRAIL95-281, MMP and uPA sites (protein)
# chain: TSEETISTVQEKQQNISPLVRERGPQRVAAHITGTRGRSNTLSSPNSKNEKALGRKINSWESSRSGHSFLSNLHLRNGELVIHEKGFYYIYSQTYFRFQEEIKENTKNDKQMVQYIYKYTSYPDPILLMKSARNSCWSKDAEYGLYSIYQGGIFELKENDRIFVSVTNEHLIDMDHEASFFGAFLVGCAACAAACGGGPLGLAGRVVRRRRRRRRGGGFQLRQPPLVPSRKGE
# modifications: synthesized, a fusion protein comprising: a fragment of TRAIL protein, a fragment of peptide DD2 derived from DOC-2/DAB2, cleavage sites recognized by uPA and MMP, an arginine transporting domain and a cysteine-alanine-glycine steric linker.
# notes: fusion protein: 18-amino acid peptide DD2 from DOC-2/DAB2 with 7 Arg transporting domain at C-terminus of TRAIL95-281, MMP and uPA sites
# B3: Ex. 7: fusion protein: 8-amino acid fragment of human fetoprotein at C-terminus of TRAIL95-281, cysteine-alanine linker, MMP and uPA cleavage sites (protein)
# chain: TSEETISTVQEKQQNISPLVRERGPQRVAAHITGTRGRSNTLSSPNSKNEKALGRKINSWESSRSGHSFLSNLHLRNGELVIHEKGFYYIYSQTYFRFQEEIKENTKNDKQMVQYIYKYTSYPDPILLMKSARNSCWSKDAEYGLYSIYQGGIFELKENDRIFVSVTNEHLIDMDHEASFFGAFLVGCAACAAACPLGLAGRVVREMTPVNPG
# modifications: synthesized, a fusion protein comprising: a fragment of TRAIL protein, a fragment of human fetoprotein, cleavage sites recognized by uPA and MMP and a flexible cysteine - alanine linker.
# notes: fusion protein: 8-amino acid fragment of human fetoprotein at C-terminus of TRAIL95-281, cysteine-alanine linker, MMP and uPA cleavage sites
# B4: Ex. 5: fusion protein: 34-amino acid fragment of human fetoprotein at N-terminus of TRAIL95-281, uPA and MMP cleavage sites (protein)
# chain: LSEDKLLACGEGAADIIIGHLCIRHEMTPVNPGRVVRPLGLAGTSEETISTVQEKQQNISPLVRERGPQRVAAHITGTRGRSNTLSSPNSKNEKALGRKINSWESSRSGHSFLSNLHLRNGELVIHEKGFYYIYSQTYFRFQEEIKENTKNDKQMVQYIYKYTSYPDPILLMKSARNSCWSKDAEYGLYSIYQGGIFELKENDRIFVSVTNEHLIDMDHEASFFGAFLVG
# modifications: synthesized, a fusion protein comprising: a fragment of TRAIL protein, a fragment of human fetoprotein and cleavage sites recognized by uPA and MMP.
# notes: fusion protein: 34-amino acid fragment of human fetoprotein at N-terminus of TRAIL95-281, uPA and MMP cleavage sites
# B5: Ex. 4: fusion protein: 34-amino acid fragment of human fetoprotein at C-terminus of TRAIL121-281, MMP and uPA cleavage sites (protein)
# chain: RVAAHITGTRGRSNTLSSPNSKNEKALGRKINSWESSRSGHSFLSNLHLRNGELVIHEKGFYYIYSQTYFRFQEEIKENTKNDKQMVQYIYKYTSYPDPILLMKSARNSCWSKDAEYGLYSIYQGGIFELKENDRIFVSVTNEHLIDMDHEASFFGAFLVGPLGLAGRVVRLSEDKLLACGEGAADIIIGHLCIRHEMTPVNPG
# modifications: synthesized, a fusion protein comprising: a fragment of TRAIL protein, a fragment of human fetoprotein and cleavage sites recognized by uPA and MMP.
# notes: fusion protein: 34-amino acid fragment of human fetoprotein at C-terminus of TRAIL121-281, MMP and uPA cleavage sites
# B6: Ex. 15: fusion protein: 15-amino acid fragment of PH domain of TCL1 protein with antennapedia sequence at C-terminus of TRAIL121-281, MMP and uPA sites (protein)
# chain: RVAAHITGTRGRSNTLSSPNSKNEKALGRKINSWESSRSGHSFLSNLHLRNGELVIHEKGFYYIYSQTYFRFQEEIKENTKNDKQMVQYIYKYTSYPDPILLMKSARNSCWSKDAEYGLYSIYQGGIFELKENDRIFVSVTNEHLIDMDHEASFFGAFLVGGSPLGLAGRVVRDRQIKIWFQNRRMKWKKAVTDHPDRLWAWEKF
# modifications: synthesized, a fusion protein comprising: a fragment of TRAIL protein, a fragment of PH domain of TCL1 protein - acting as Akt coactivator, cleavage sites recognized by uPA and MMP, an antennapedia transporting domain and a glycine-cysteine linker.
# How the values were obtained:
# A549 = assay: MTT cytotoxicity test, A549 (human lung cancer); assay type: cell-based; conditions: for A549 mean (IC50): Table 4, mean/SD part; for A549 IC50: continuous incubation over 72 h, test MTT
# Text: (§1) MTT assay is a colorimetric assay used to measure proliferation, viability and cytotoxicity of cells. It consists in decomposition of a yellow tetrazolium salt MTT (4,5-dimethyl-2-thiazolyl)-2,5-diphenyltetrazolium bromide) to the water-insoluble purple dye formazan by mitochondrial enzyme succinate-tetrazolium reductase 1. MTT reduction occurs only in living cells. Data analysis consists in determining IC50 concentration of the protein (in ng/ml), at which the 50% reduction in the number of cells occurs in the population treated compared to control cells. Results were analyzed using GraphPad Prism 5.0 software. The test was performed according to the literature descriptions (Cells, J E, (1998). Cell Biology, a Laboratory Handbook, second edition, Academic Press, San Diego; Yang, Y., Koh, L W, Tsai, J H., (2004); Involvement of viral and chemical factors with oral cancer in Taiwan, Jpn J Clin Oncol, 34 (4), 176-183). Cell culture medium was diluted to a defined density (10^4-10^5 cells per 100 μl). Then 100 μl of appropriately diluted cell suspension was applied to a 96-well plate in triplicates. Thus prepared cells were incubated for 24 h at 37° C. in 5% or 10% CO2, depending on the medium used, and then to the cells (in 100 μl of medium) further 100 μl of the medium containing various concentrations of tested proteins were added. In the case of combination hTRAIL114-281 and p21WAF effector protein, 100 μl of the medium containing mixture of hTRAIL114-281 and p21WAF effector protein in molar ratio 1:1 was added. After incubation of the cells with tested proteins over the period of next 72 hours, which is equivalent to 3-4 times of cell division, the medium with the test protein was added with […] of MTT working solution [5 mg/ml], and incubation was continued for 3 h at 37° C. in 5% CO2. Then the medium with MTT solution was removed, and formazan crystals were dissolved by adding 100 μl of DMSO. After stirring, the absorbance was measured at 570 nm (reference filter 690 nm).
# (§2) The results of in vitro cytotoxicity tests are summarized as IC50 values (ng/ml), which corresponds to the protein concentration at which the cytotoxic effect of fusion proteins is observed at the level of 50% with respect to control cells treated only with solvent. Each experiment represents the average value of at least two independent experiments performed in triplicates. As a criterion of lack of activity of protein preparations the IC50 limit of 2000 ng/ml was adopted.
# SK-MES-1 = assay: MTT cytotoxicity test, SK-MES-1 (human lung cancer); assay type: cell-based; conditions: for SK-MES-1 mean (IC50): Table 4, mean/SD part; for SK-MES-1 IC50: continuous incubation over 72 h, test MTT
# Text: as §1, §2
# MES-SA = assay: MTT cytotoxicity test, MES-SA (human uterine sarcoma); assay type: cell-based; conditions: for MES-SA mean (IC50): Table 4, mean/SD part; for MES-SA IC50: continuous incubation over 72 h, test MTT
# Text: as §1, §2
# MCF10A = assay: MTT cytotoxicity test, MCF10A (mammary epithelial cells); assay type: cell-based; conditions: for MCF10A mean (IC50): Table 4, mean/SD part; for MCF10A IC50: continuous incubation over 72 h, test MTT
# Text: as §1, §2
# HCT-116 = conditions: for HCT116 mean (IC50): Table 4, mean/SD part; for HCT116 IC50: continuous incubation over 72 h, test MTT
# MES-SA/Dx5 = assay: MTT cytotoxicity test, MES-SA/Dx5 (multidrug-resistant human uterine sarcoma); assay type: cell-based; conditions: for MES-SA/Dx5 mean (IC50): Table 4, mean/SD part; for MES-SA/Dx5 IC50: continuous incubation over 72 h, test MTT
# Text: as §1, §2
# Cells selected for this test included tumor cell lines that are naturally resistant to TRAIL protein (the criterion of natural resistance to TRAIL: IC50 for TRAIL protein >2000), as well as tumor cell lines sensitive to TRAIL protein and resistant to doxorubicin line MES-SA/DX5 as a cancer line resistant to conventional anticancer medicaments.
# [1] = test system: TRAIL sensitive cell lines; assay: in vitro cytotoxicity tests, TRAIL sensitive cell lines; assay type: cell-based; conditions: continuous incubation over 72 h, test MTT; versus rhTRAIL 95-281 (cell line not given)
# Text: as §1, with “nm). […]” for “nm).”
Molecule,A549 mean (IC50) (A549) [ng/mL],SK-MES-1 mean (IC50) (SK-MES-1) [ng/mL],MES-SA mean (IC50) (MES-SA) [ng/mL],MCF10A mean (IC50) (MCF10A) [ng/mL],HCT116 mean (IC50) (HCT-116) [ng/mL],MES-SA/Dx5 mean (IC50) (MES-SA/Dx5) [ng/mL],A549 IC50 (A549) [ng/mL],SK-MES-1 IC50 (SK-MES-1) [ng/mL],MES-SA IC50 (MES-SA) [ng/mL],MCF10A IC50 (MCF10A) [ng/mL],HCT116 IC50 (HCT-116) [ng/mL],MES-SA/Dx5 IC50 (MES-SA/Dx5) [ng/mL],IC50 [1] [ng/mL]
B1,42.85,3.045,8.460,92.28,15.85,1.421,,,,,,,
B2,,,,,,,257,33.48,104.4,133.3,84.29,8.85,63
B3,,,,,,,>2000,36.6,>2000,>2000,63.5,22.11,105
B4,3000,79.65,95.00,8949,179.8,11.16,,,,,,,
B5,,,,,,,>2000,10.11,205.3,>2000,32.25,11.36,
B6,1000,78.40,123.0,1000,603.5,328.9,,,,,,,
